The values below come from EP2922560B1.

For the assay, the target named is native human IL-23 receptor on the surface of cultured human cells (K-562, THP-1, Jurkat) and primary human T-cells (human) (UniProt Q5VWK5). Nature of the assay: cell-based or functional assay.
native human IL-23 receptor on the surface of cultured human cells (K-562, THP-1, Jurkat) and primary human T-cells (human), sequence (Q5VWK5 24-629): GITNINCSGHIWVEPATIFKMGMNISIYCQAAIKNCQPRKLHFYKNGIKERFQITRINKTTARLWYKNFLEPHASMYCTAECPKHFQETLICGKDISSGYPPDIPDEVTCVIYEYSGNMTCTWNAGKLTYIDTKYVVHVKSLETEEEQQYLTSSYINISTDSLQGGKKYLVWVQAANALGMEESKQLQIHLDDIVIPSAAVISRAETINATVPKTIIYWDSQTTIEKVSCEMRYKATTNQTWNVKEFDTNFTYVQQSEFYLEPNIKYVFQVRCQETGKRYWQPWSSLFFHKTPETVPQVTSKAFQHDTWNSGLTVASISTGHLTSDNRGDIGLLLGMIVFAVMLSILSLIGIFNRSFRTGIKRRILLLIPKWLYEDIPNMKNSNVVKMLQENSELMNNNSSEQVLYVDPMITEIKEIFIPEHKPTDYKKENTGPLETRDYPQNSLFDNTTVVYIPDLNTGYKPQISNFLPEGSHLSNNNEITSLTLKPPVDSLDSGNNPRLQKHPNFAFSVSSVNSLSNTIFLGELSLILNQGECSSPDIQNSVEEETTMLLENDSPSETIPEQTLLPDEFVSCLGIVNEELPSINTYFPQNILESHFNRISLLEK

For the substance “His6-ABDwt-TolA-AVI (from UniProt P19934 131-421)”, the Th-17+ cell expansion (IL-17-producing cells) in PBMC suspensions after 3 days, normalized to IL-23 only = 1 (normalized cell count (IL-23 only = 1)) was found to be 0.88 and the Th-17+ cell expansion in separated T-cell samples after 3 days, normalized to IL-23 only = 1 (normalized cell count (IL-23 only = 1)) turned out to be 0.99.
